Patent US20220041665A1, “POLYNUCLEOTIDE AND USES THEREOF” (Helsingin yliopisto, priority 2019, published 2022)
Values belong to the binder of their own block, whether it stands above or below them.

What was measured:
Experiment in all cases: cell-based or functional assay
[1] = biological target: all targets (endogenous loci tagged homozygously with miniIAA7-mEGFP N- or C-terminally)
[2] = biological target: seipin tagged with miniIAA7-mEGFP (miniIAA7 = AtIAA7 amino acids 37-104) (human; Arabidopsis thaliana) (UniProt Q96G97)
[3] = biological target: LBR tagged C-terminally with miniIAA7-mEGFP (human; Arabidopsis thaliana) (UniProt Q14739)
[4] = biological target: Non-nuclear targets expressed at low levels (seipin, NPC1, PEX3 and Glut1), tagged with miniIAA7-mEGFP
[5] = biological target: seipin tagged with miniAID-mEGFP (miniAID = AtIAA17 amino acid residues 68-132) (human; Arabidopsis thaliana) (UniProt Q96G97)
[6] = biological target: NMIIa (MYH9) tagged N-terminally with miniIAA7-mEGFP (Arabidopsis thaliana; human) (UniProt P35579)

basal degradation at 0 h IAA, FACS of GFP [1]: 12 to 37%
depletion efficiency at 16 h IAA, FACS of GFP [1]: 2 to 7%
B1: TIR1 derived from Oryza sativa (OsTIR1) (receptor, UniProt Q7XVM8 1-575, looked up)
chain: MTYFPEEVVEHIFSFLPAQRDRNTVSLVCKVWYEIERLSRRGVFVGNCYAVRAGRVAARFPNVRALTVKGKPHFADFNLVPPDWGGYAGPWIEAAARGCHGLEELRMKRMVVSDESLELLARSFPRFRALVLISCEGFSTDGLAAVASHCKLLRELDLQENEVEDRGPRWLSCFPDSCTSLVSLNFACIKGEVNAGSLERLVSRSPNLRSLRLNRSVSVDTLAKILLRTPNLEDLGTGNLTDDFQTESYFKLTSALEKCKMLRSLSGFWDASPVCLSFIYPLCAQLTGLNLSYAPTLDASDLTKMISRCVKLQRLWVLDCISDKGLQVVASSCKDLQELRVFPSDFYVAGYSAVTEEGLVAVSLGCPKLNSLLYFCHQMTNAALVTVAKNCPNFTRFRLCILEPGKPDVVTSQPLDEGFGAIVRECKGLQRLSISGLLTDKVFMYIGKYAKQLEMLSIAFAGDSDKGMMHVMNGCKNLRKLEIRDSPFGDAALLGNFARYETMRSLWMSSCNVTLKGCQVLASKMPMLNVEVINERDGSNEMEENHGDLPKVEKLYVYRTTAGARDDAPNFVKIL

auxin-inducible protein reduction at 1 h IAA, FACS of GFP, compared to miniAID [2]: 3 fold
target protein level at 1 h IAA, FACS of GFP [3]: < 12%
target protein level at 1 h IAA, FACS of GFP [4]: 2 to 5%
target protein level before IAA addition (0 h IAA), FACS of GFP, compared to OsTIR1 [5]: 5 fold
target protein level at 0 h IAA (basal degradation), FACS of GFP (% levels of control) [1]: 86 to 109
target protein level at 16 h IAA, FACS of GFP [1]: 2 to 5 % levels
target protein level at 1 h IAA, FACS of GFP [6]: < 12%
B2: Arabidopsis thaliana AFB2 (AtAFB2), auxin perceptive F-box protein, tagged with mCherry (receptor, not shown: large carriers)
chain: MNYFPDEVIEHVFDFVTSHKDRNAISLVCKSWYKIERYSRQKVFIGNCYAINPERLLRRFPCLKSLTLKGKPHFADFNLVPHEWGGFVLPWIEALARSRVGLEELRLKRMVVTDESLELLSRSFVNFKSLVLVSCEGFTTDGLASIAANCRHLRDLDLQENEIDDHRGQWLSCFPDTCTTLVTLNFACLEGETNLVALERLVARSPNLKSLKLNRAVPLDALARLMACAPQIVDLGVGSYENDPDSESYLKLMAVIKKCTSLRSLSGFLEAAPHCLSAFHPICHNLTSLNLSYAAEIHGSHLIKLIQHCKKLQRLWILDSIGDKGLEVVASTCKELQELRVFPSDLLGGGNTAVTEEGLVAISAGCPKLHSILYFCQQMTNAALVTVAKNCPNFIRFRLCILEPNKPDHVTSQPLDEGFGAIVKACKSLRRLSLSGLLTDQVFLYIGMYANQLEMLSIAFAGDTDKGMLYVLNGCKKMKKLEIRDSPFGDTALLADVSKYETMRSLWMSSCEVTLSGCKRLAEKAPWLNVEIINENDNNRMEENGHEGRQKVDKLYLYRTVVGTRMDAPPFVWILGGSGG
